{"source": "the RNAGym collection of RNA variant scans (doi:10.1073/pnas.2313332121)", "parents": {"B1": {"name": "TPR 5TU (parent)", "chain": "GGAUCUUCUCGAUCUAACAAAAAAGACAAAUCUGCCACAAAGCUUGAGAGCAUCUUCGGAUGCAGAGGCGGCAGCCUUCGGUGGCGCGAUAGCGCCAACGUUCUCAACUAUGACACGCAAAACGCGUGCUCCGUUGAAUGGAGUUUAUCAUG"}}, "note": "Fewer inactive variants are shown than the library holds.", "data": [{"variants_of": "B1", "experiment": "polymerase ribozyme fitness, log enrichment relative to wild type (log ratio); higher = more active; in vitro selection for triplet polymerase activity", "in_short": "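One round of in vitro selection, in triplicate, was applied to PCR-built, transcribed mutant libraries of each subunit of a heterodimeric triplet polymerase ribozyme. The steps were annealing with a biotinylated primer, partner subunit and triplets, incubation frozen at −7 °C, gel excision of extended constructs, streptavidin-bead capture and RT-PCR. Fitness is the logarithm, base 2, of genotype enrichment over wild-type enrichment from inverse-variance-weighted replicate averages of Illumina-sequenced inputs and outputs, keeping genotypes with ≥10 input reads and ≥1 read per output.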", "values": [{"variant": "GGAUCUUCUCGAUCUAACAAAAAAGACAAAUCUGCCACAAAGCUUGAGAACAUCUUCGGAUGCAGAGGCGGCAGCCUUCGGUGGCGCGAUAGGGCCAACGUUCUCAACUAUGACACGCAAAACAUGUGCUCCAUGGAAUGGAGUUUAUCGUG", "polymerase ribozyme fitness (log ratio)": "≤ -4.2"}, {"variant": "GGAUCUUCUCGAUCUAACAAAAAAGACAAAUCUGCCACAAAGCUUGAGAACAUUUUAGGAUGCAGAGGCGGCAGCCUUCGGUGUCGCGAUAGCGCCAACGUUGUCAACUAUGACACGCAAAACCCGUGCUCCUUUGAAUGCAGUUUAUCAUG", "polymerase ribozyme fitness (log ratio)": "≤ -4.2"}, {"variant": "GGAUCUUCUCGAUCUAACAAAAAAGACAAAUCUGCCACAAAGCUUGAGAACAUCUUCGGAUGCAGAGGCGGCAGCCUUCGGUGGGGCGAUAGCGCCAACGUUCUCAACUAUGACACGCAAAACGCGUGCUCCGUUGAAUGGAGUUUAUCAUG", "polymerase ribozyme fitness (log ratio)": -3.34}, {"variant": "GGAUCUUCUCGAUCUAACAAAAAAGACAAAUCUGCCACAAAGCUUGAGAAUAUCAUCGGAUGCAGAGGCGGCAGCCUUCGGUGACGAGAUAGAGCCAACGUUCUCAAUUAUGACACGCAAAACGCGUGCUCCGUUGAAUCGAGUUCAUCAUG", "polymerase ribozyme fitness (log ratio)": "≤ -4.2"}, {"variant": "GGAUCUUCUCGAUCUAACAAAAAAGACAAAUCUGCCACAAAGCUUGAGAACAUCUUCGGAUGCAGAGGCGGCAGUUUUCGGUGGCGCGAUAGCGCCAACGUUCUCAACUAUGAGACGCAAAACGCGUGCUCCGUUGAAUGGAGUUUAUCAUU", "polymerase ribozyme fitness (log ratio)": -4.02}, {"variant": "GGAUCUUCUCGAUCUAACAAAAAAGACAAAUCUGCCACAAAGCUUGAGAACAUCUUCGGAUGCAGAGGUGGCAGCCUUCGGUGGCGCGAUAGCGCCAACGUUCUCAACUAUGACACGCAAUACGCGUGCUCCGUUGCAUGGAGUUUAUCAUG", "polymerase ribozyme fitness (log ratio)": "≤ -4.2"}, {"variant": "GGAUCUUCUCGAUCUAACAAAAAAGACAAAUCUGCCACAAAGCUUGAGAACAUCUUAGGAUGCAGAGGCGGCAGCGUUCGGUGGCGCGAUAGGGCCAACGUUCUCAACUAUGACACGCAAAACGCGUGCUCCGUUGAAUGGAGUUUAUCAUG", "polymerase ribozyme fitness (log ratio)": "≤ -4.2"}, {"variant": "GGAUCUUCUCGAUCUAACAAAAAAGACAAAUCUGCCACAAAGCUUGAGAACAUCUUCGGAUGCAGAGGCGGCAGCCUUCGGUGGCGUGAUAGCGCCUACGUUCUCAACUAUGACACGCAAAACGCGUGCUCCGUUGAAUGGAGUUUAUCAUG", "polymerase ribozyme fitness (log ratio)": -3.34}, {"variant": "GGAUCUUCUCGAUCUAACAAAAAAGACAAAUCUGCCACAAAGCUUGAGAAUAUCAUCGGAUGCAGAGGCGGCAGCAUUCGGUGGCGCGAUAGCGCCAACGUUCUUAAGUAUGACACGCAAAACGCGUGCUCCGUUGAAUGGAGUUUAUCAUG", "polymerase ribozyme fitness (log ratio)": "≤ -4.2"}, {"variant": "GGAUCUUCUCGAUCUAACAAAAAAGACAAAUCUGCCACAAAGCUUGAGAACAUCUUUGGAUGCAGAGGCGGCAGCCUUCGGUGGUGCGAUAGCGCCAACGUUCUCAACUAUGACACGCAAAACGCGUACUCCGUUGAAUGGAGUUUAUCAUG", "polymerase ribozyme fitness (log ratio)": "≤ -4.2"}, {"variant": "GGAUCUUCUCGAUCUAACAAAAAAGACAAAUCUGCCACAAAGCUUGAGAACAUCUUCGGAUGCAGAGGCGGCAGCCUUCGGUGGCGCGAUAGUGCCAACGUUCUCAACUAUGACACGCAAAACGCGUGCUCCGUUGAAUGGAGUUUAUCAUA", "polymerase ribozyme fitness (log ratio)": -3.09}, {"variant": "GGAUCUUCUCGAUCUAACAAAAAAGACAAAUCUGCCACAAAGCUUGAGAACAUUUUCGGAUGCAGAGGCGGCAGCCUUCGGUGGCGCGAUUGUGCCAACGUUCUCACAUAUGACACGCAAAACGCGUGCUCGGUUGAUUGGAGUUUAGCAUG", "polymerase ribozyme fitness (log ratio)": "≤ -4.2"}, {"variant": "GGAUCUUCUCGAUCUAACAAAAAAGACAAAUCUGCCACAAAGCUUGAGAACAUCUUCGGAUGCAGAGGCGGCAGCCUUCGGUGGCGCGAUAGCGUCAACGUUCUCAACUAUGACACGCAAAACGCGUGCUCCGUUGAAUGGAGUUUAUCAUG", "polymerase ribozyme fitness (log ratio)": -2.44}, {"variant": "GGAUCUUCUCGAUCUAACAAAAAAGACAAAUCUGCCACAAAGCUUGAGAACAUCUUCGGAUGCAGAGGCGGCAGCCUUCGGUGGCGCGAUAGCGGCAACGUUCUCAACUAUGACACGCAAAACGCGUGCUCCGUUGAAUGGAGUUUAUCAUG", "polymerase ribozyme fitness (log ratio)": -3.01}, {"variant": "GGAUCUUCUCGAUCUAACAAAAAAGACAAAUCUGCCACAAAGCUUGAGAAAAUCUUCGGAUGCAGAGGCGGCAGCCUUCGGUGGCGCGAUAGCGCCAACGUUCUCAACUAUGAUACGCAAAACGCGUGCUCCGCUAAAUGGAGUUUAUCAGG", "polymerase ribozyme fitness (log ratio)": "≤ -4.2"}, {"variant": "GGAUCUUCUCGAUCUAACAAAAAAGACAAAUCUGCCACAAAGCUUGAGAACAUCUUAGGAUGCAGCGGCGGCAGCCUUCGUUGGCCCGAUAGCGCCCACGUUCUCAACUAUGACACGCAAAACGCGUGCUCCGUUGAAUGGAGUUUAUCAUG", "polymerase ribozyme fitness (log ratio)": "≤ -4.2"}, {"variant": "GGAUCUUCUCGAUCUAACAAAAAAGACAAAUCUGCCACAAAGCUUGAGAACAUCUUCGGAUGCAGAGGCGGCAGCGUUCGGUGGCGCGAUAGGGCCAACGUACUCAACUAUGACACGCAAAACGCGUGCUCCGUGGAAUGGAGUUUAUCGUG", "polymerase ribozyme fitness (log ratio)": "≤ -4.2"}, {"variant": "GGAUCUUCUCGAUCUAACAAAAAAGACAAAUCUGCCACAAAGCUUGAGAACAUUUUCGGAUGCAGAGGCGGCAGCCUUCGGUGGUGCGAUAGUUCCAACGUUCUCAACUAUGACACACAAAACGCGUGCUCCGUUGAAUGGAGUUUAUCAUG", "polymerase ribozyme fitness (log ratio)": -3.95}, {"variant": "GGAUCUUCUCGAUCUAACAAAAAAGACAAAUCUGCCACAAAGCUUGAGAACAUCUUCGGAUGCAGAGGCGGCAGCUUUCGGUGGCGCGAUAGCGCAAACGUUCUCAACUAUGACACGCAAGACGCGUGCUCCGUUGAAUGGAGUUUAUCAUG", "polymerase ribozyme fitness (log ratio)": -1.1}]}]}
